The results in this text go back to patent publication US20080045697A1.

A value given as a limit tells only on which side of the number the result lay.

The target of assay [1] is complement C3b (UniProt P01024). Nature of the assay: competition ELISA: CRIg protein against CRIg-LFH on plate-coated C3b, anti-FLAG detection.
The target is the same in assay [2]. Nature of the assay: cell-based or functional assay.

With “CRIg mutant A (E85A M86A) (from UniProt Q9Y279 20-399) (receptor)”, the fold increase of IC50 compared to wt CRIg in assay [1] is greater than 10000 fold.
Substance “CRIg-Fc (from UniProt Q9Y279 20-283) (Fc fusion)” yielded an inhibition of hemolysis of rabbit erythrocytes in C1q deficient serum (alternative pathway) in assay [2] of 127 nM.
As to “CRIg (soluble, construct not stated) (from UniProt Q9Y279 20-189) (receptor)”, in assay [2], the inhibition of C5b-9 deposition through the alternative pathway (LPS-coated plate, C1q deficient serum) was 1.49 µM.
In turn, “CRIg mutant B (H57A Q59A) (from UniProt Q9Y279 20-399) (receptor)” came in with a fold increase of IC50 compared to wt CRIg in assay [1] of 100 fold.
